The Kd is a measure of binding affinity in units of concentration. Lower therefore signals tighter binding. In general, EC50 refers to the concentration giving half of the maximal effect. Lower therefore signals greater potency.

Experiment [1] addresses cyno CD21 protein (cynomolgus monkey). The experiment in a line: SPR (Biacore). In general terms: In SPR one partner is held on a chip, and binding of the other changes the refractive index at the surface.
For experiment [2], the target named is T1, human CD21 protein (human, UniProt P20023 21-971, limits assumed).
T1 construct: the Biacore set-up is not described; also called huCD21; CR2
T1 sequence (looked up): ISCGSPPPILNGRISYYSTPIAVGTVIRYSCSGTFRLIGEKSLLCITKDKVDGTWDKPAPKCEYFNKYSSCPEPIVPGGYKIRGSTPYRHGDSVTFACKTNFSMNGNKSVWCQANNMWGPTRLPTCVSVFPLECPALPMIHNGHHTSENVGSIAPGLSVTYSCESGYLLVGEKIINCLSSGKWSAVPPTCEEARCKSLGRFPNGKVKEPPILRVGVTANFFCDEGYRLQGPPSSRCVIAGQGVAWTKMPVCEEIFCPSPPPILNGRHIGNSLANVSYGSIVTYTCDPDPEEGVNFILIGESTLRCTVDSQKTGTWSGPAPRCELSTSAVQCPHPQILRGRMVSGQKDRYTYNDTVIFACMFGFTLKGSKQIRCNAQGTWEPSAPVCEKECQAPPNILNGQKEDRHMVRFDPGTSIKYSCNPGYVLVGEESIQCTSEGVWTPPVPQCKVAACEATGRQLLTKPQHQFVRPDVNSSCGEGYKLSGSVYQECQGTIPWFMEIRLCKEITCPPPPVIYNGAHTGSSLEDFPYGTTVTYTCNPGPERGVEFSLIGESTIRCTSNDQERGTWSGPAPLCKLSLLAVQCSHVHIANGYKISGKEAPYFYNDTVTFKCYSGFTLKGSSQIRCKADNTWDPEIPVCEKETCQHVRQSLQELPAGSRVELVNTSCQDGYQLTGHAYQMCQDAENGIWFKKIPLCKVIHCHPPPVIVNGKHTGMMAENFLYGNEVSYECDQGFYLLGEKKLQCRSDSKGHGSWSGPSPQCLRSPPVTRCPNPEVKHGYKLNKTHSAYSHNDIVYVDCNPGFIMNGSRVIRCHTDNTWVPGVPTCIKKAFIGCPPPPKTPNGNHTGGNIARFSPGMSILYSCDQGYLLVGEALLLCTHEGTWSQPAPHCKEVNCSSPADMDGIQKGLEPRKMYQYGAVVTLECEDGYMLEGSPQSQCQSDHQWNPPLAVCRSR
The experiment in a line: SPR (Biacore).

Experiment [3] addresses T2, cyno CD21 on CHO cells (cynomolgus monkey, UniProt A0A2K5URG6 21-1034).
T2 construct: whole, on cells; also called CHO-cyno CD21 cells; CHO-cynoCD21
T2 sequence: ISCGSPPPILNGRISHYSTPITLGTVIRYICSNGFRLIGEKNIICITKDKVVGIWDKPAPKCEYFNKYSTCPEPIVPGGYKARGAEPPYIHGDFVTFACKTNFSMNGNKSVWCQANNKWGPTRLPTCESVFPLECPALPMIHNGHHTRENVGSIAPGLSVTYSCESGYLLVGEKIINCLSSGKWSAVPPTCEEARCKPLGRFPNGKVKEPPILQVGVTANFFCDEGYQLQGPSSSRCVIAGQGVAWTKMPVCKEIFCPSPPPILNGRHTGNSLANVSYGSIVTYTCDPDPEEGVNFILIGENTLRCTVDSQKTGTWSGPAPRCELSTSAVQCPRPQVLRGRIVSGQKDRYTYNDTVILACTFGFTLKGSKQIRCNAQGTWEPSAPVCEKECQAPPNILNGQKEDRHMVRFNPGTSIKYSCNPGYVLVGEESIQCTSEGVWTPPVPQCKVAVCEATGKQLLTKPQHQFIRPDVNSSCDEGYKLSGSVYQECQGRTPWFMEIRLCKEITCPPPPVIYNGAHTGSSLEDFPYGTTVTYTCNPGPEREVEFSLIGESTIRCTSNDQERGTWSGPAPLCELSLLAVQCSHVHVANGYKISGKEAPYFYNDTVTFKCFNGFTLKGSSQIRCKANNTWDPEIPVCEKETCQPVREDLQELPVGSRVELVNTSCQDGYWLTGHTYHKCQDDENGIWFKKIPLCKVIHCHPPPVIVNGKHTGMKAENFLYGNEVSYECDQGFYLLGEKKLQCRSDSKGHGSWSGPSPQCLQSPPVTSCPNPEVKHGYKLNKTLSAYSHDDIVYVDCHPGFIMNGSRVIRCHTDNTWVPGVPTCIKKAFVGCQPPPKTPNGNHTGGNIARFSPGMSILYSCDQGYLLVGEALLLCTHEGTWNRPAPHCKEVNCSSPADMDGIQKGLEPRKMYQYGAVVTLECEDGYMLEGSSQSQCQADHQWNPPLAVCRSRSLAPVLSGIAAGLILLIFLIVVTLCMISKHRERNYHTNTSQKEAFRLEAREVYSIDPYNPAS
Kind of experiment: flow cytometry, Ab15 titrated on CHO cells overexpressing cyno CD21, anti-human IgG-PE, Geo MFI. On the procedure:
Ab15 binding to cell-surface human and cyno CD21 was determined using human Raji B cells (ATCC, Manassas, VA) and CHO cells over expressing cyno CD21. Cells expressing cyno CD21 were generated by transfecting CHO cells with a mammalian expression construct encoding full-length cyno CD21. Stable cell clones were selected on hygromycin-B, and their expression of cyno CD21 confirmed by flow cytometry.
For the Ab15 binding experiment, cells were dissociated with cell dissociation buffer (Sigma) and blocked on ice with PBS+3% bovine serum (BS)+human Fc blocker. Cells were stained on ice for 1 hr with 3-fold serially diluted Ab15 (starting from 50 nM), then washed with cold PBS. Secondary antibody (anti-human IgG-PE, 1:500 dilution, Invitrogen, cat. #H10104) was added on ice for 1 hr. Cells were washed with and resuspended in PBS, and analyzed for Ab15 binding on a BD Fortessa instrument.
(In general: Flow cytometry measures light scatter and fluorescence of single cells or particles in a stream.)

B1: Ab15 (antibody, human IgG1, kappa, V domains shown)
VH: QVQLVQSGAEVKKPGSSVKVSCKASGGTFSSYAISWVRQAPGQGLEWMGRIIPILGIANYAQKFQGRVTITADKSTSTAYMELSSLRSEDTAVYYCAREDDSSGYYQDWGQGTLVTVSS
VL: EIVMTQSPATLSLSPGESATLSCRAGQSINSHLAWYQQKPGQSPSLLIYDASTRATGVPARFSGSGFGTEFTLTISSLQSEDFAVYFCQQYEYWYTFGQGTKLEIKR
notes: Tb-labeled in the HTRF assay; also called 36C01; SC38-36C01 (IgG1 version)
Consider B1, for which the dissociation constant Kd was 5.77 nM in experiment [1] and 15.6 nM in experiment [2]. Further, the EC50 in experiment [3] came out at 0.05 nM.

(Values after US20240376225A1 (CHILDREN S MEDICAL CENTER, published 2024).)
